# Laboratory results as given in PMC11172124 (Cells, 2024).
# Tests used:
# [1] = target: the molecule itself; experiment: non-reducing SDS-PAGE with Western blot; MCF10A cell lysate with 20 mM N-ethylmaleimide, without β-mercaptoethanol, 4 min at 50 °C, 4–12% gradient gel; shows only disulphide-linked species
# [2] = target: T1, Lamin B1 (human (endogenous in MCF10A and MDA-MB-231)), P20700; experiment: as above; conditions: remark: other sources report otherwise
# T1 chain: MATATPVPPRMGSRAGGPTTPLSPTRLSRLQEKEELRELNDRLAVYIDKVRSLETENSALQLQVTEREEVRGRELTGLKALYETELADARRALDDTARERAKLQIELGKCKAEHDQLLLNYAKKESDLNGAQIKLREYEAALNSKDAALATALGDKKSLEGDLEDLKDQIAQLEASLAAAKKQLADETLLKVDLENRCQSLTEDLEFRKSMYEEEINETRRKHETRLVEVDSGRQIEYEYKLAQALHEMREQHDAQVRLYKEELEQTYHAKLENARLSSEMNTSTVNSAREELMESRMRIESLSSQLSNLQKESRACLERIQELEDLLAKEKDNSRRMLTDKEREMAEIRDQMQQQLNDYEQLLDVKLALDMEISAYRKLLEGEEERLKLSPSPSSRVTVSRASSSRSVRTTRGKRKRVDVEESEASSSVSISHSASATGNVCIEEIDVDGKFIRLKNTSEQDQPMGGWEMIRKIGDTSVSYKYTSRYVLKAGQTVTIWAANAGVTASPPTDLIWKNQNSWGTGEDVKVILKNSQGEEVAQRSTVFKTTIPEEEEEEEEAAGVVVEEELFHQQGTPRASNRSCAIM
Binder,ratio of the >140 kDa SUN2 signal to the SUN2 monomer signal [1],stoichiometry N [1],stoichiometry N [2]
"SUN2 (natural protein, UniProt Q9UH99-2 1-738, looked up, SUN2, human, endogenous in MCF10A and MDA-MB-231 cells; detected as a ~80 kDa monomer; Free cysteines were alkylated with 20 mM N-ethylmaleimide when the lysate was made; Which isoform the cells express was not determined; also called SUN-domain protein SUN2) MSRRSQRLTRYSQGDDDGSSSSGGSSVAGSQSTLFKDSPLRTLKRKSSNMKRLSPAPQLGPSSDAHTSYYSESLVHESWFPPRSSLEELHGDANWGEDLRVRRRRGTGGSESSRASGLVGRKATEDFLGSSSGYSSEDDYVEDSEGRGSKVTETEPVSSFPAGYSDVDQQSSSSRLRSAVSRAGSLLWMVATSPGRLFRLLYWWAGTTWYRLTTAASLLDVFVLTRRFSSLKTFLWFLLPLLLLTCLTYGAWYFYPYGLQTFHPALVSWWAAKDSRRPDEGWEARDSSPHFQAEQRVMSRVHSLERRLEALAAEFSSNWQKEAMRLERLELRQGAPGQGGGGGLSHEDTLALLEGLVSRREAALKEDFRRETAARIQEELSALRAEHQQDSEDLFKKIVRASQESEARIQQLKSEWQSMTQESFQESSVKELRRLEDQLAGLQQELAALALKQSSVAEEVGLLPQQIQAVRDDVESQFPAWISQFLARGGGGRVGLLQREEMQAQLRELESKILTHVAEMQGKSAREAAASLSLTLQKEGVIGVTEEQVHHIVKQALQRYSEDRIGLADYALESGGASVISTRCSETYETKTALLSLFGIPLWYHSQSPRVILQPDVHPGNCWAFQGPQGFAVVRLSARIRPTAVTLEHVPKALSPNSTISSAPKDFAIFGFDEDLQQEGTLLGKFTYDQDGEPIQTFHFQAPTMATYQVVELRILTNWGHPEYTCIYRFRVHGEPAH",~1,2,–
"Lamin B1, P20700 1-586 (natural protein) MATATPVPPRMGSRAGGPTTPLSPTRLSRLQEKEELRELNDRLAVYIDKVRSLETENSALQLQVTEREEVRGRELTGLKALYETELADARRALDDTARERAKLQIELGKCKAEHDQLLLNYAKKESDLNGAQIKLREYEAALNSKDAALATALGDKKSLEGDLEDLKDQIAQLEASLAAAKKQLADETLLKVDLENRCQSLTEDLEFRKSMYEEEINETRRKHETRLVEVDSGRQIEYEYKLAQALHEMREQHDAQVRLYKEELEQTYHAKLENARLSSEMNTSTVNSAREELMESRMRIESLSSQLSNLQKESRACLERIQELEDLLAKEKDNSRRMLTDKEREMAEIRDQMQQQLNDYEQLLDVKLALDMEISAYRKLLEGEEERLKLSPSPSSRVTVSRASSSRSVRTTRGKRKRVDVEESEASSSVSISHSASATGNVCIEEIDVDGKFIRLKNTSEQDQPMGGWEMIRKIGDTSVSYKYTSRYVLKAGQTVTIWAANAGVTASPPTDLIWKNQNSWGTGEDVKVILKNSQGEEVAQRSTVFKTTIPEEEEEEEEAAGVVVEEELFHQQGTPRASNRSCAIM",–,–,2
